Data as given in patent publication US20230357370A1.

What was measured:
[1] = target: RSV F peptides F85-93 and F249-258 (respiratory syncytial virus, A2 strain)
[2] = target: RSV F peptide 51-66 (respiratory syncytial virus, A2 strain)

Substance	CD8+ CD4- splenic T cells: % cytokine-positive, IFNg+ (intracellular cytokine immunofluorescence) [1] [%]	CD4+ CD8- splenic T cells: % cytokine-positive, TNFa+ (intracellular cytokine immunofluorescence) [2] [%]
splenic T cells of unvaccinated BALB/c mice (cells without a defined receptor)	0.01	0
splenic T cells of BALB/c mice vaccinated with A317 RNA in liposomes RV01(01) (cells without a defined receptor)	3.69	0.09
splenic T cells of BALB/c mice vaccinated with A317 RNA formulated with CNE17 (cells without a defined receptor)	1.25	0.05
splenic T cells of BALB/c mice vaccinated with A317 RNA delivered using electroporation (cells without a defined receptor)	0.85	0.05
splenic T cells of BALB/c mice vaccinated with VRPs expressing RSV-F (cells without a defined receptor)	3.48	0.1
splenic T cells of BALB/c mice vaccinated with naked self-replicating RNA A317 (cells without a defined receptor)	0.74	0.03
